Results reported in paper PMC3286128 (Biochemistry, 2012).

Biological target: purified monomeric human β-actin (G-actin) (human, UniProt P60709 1-375)
Assay: pull-down

B1: sv1_(360–420ARM) peptide (peptide)
peptide: not shown
modifications: amino-terminal biotin
Question: Does B1 bind?
Answer: Result: binds
